Source: patent US12480163

Target: p53 (tumor protein 53, TP53)

B1: Wip1 (wild-type p53-induced phosphatase 1; encoded by the PPM1D gene) (protein)
chain: MAGLYSLGVSVFSDQGGRKYMEDVTQIVVEPEPTAEEKPSPRRSLSQPLPPRPSPAALPGGEVSGKGPAVAAREARDPLPDAGASPAPSRCCRRRSSVAFFAVCDGHGGREAAQFAREHLWGFIKKQKGFTSSEPAKVCAAIRKGFLACHLAMWKKLAEWPKTMTGLPSTSGTTASVVIIRGMKMYVAHVGDSGVVLGIQDDPKDDFVRAVEVTQDHKPELPKERERIEGLGGSVMNKSGVNRVVWKRPRLTHNGPVRRSTVIDQIPFLAVARALGDLWSYDFFSGEFVVSPEPDTSVHTLDPQKHKYIILGSDGLWNMIPPQDAISMCQDQEEKKYLMGEHGQSCAKMLVNRALGRWRQRMLRADNTSAIVICISPEVDNQGNFTNEDELYLNLTDSPSYNSQETCVMTPSPCSTPPVKSLEEDPWPRVNSKDHIPALVRSNAFSENFLEVSAEIARENVQGVVIPSKDPEPLEENCAKALTLRIHDSLNNSLPIGLVPTNSTNTVMDQKNLKMSTPGQMKAQEIERTPPTNFKRTLEESNSGPLMKKHRRNGLSRSSGAQPASLPTTSQRKNSVKLTMRRRLRGQKKIGNPLLHQHRKTVCVC
phospho-Serine15-p53 protein levels (Western blot) after combined ATSP-7041 and GSK2830371 treatment: the combination of ATSP-7041 and GSK2830371 increased the phosphorylation of p53 at Serine 15 in two Ewing sarcoma cell lines
phosphorylation of Serine 15 of p53 (Western blot) after GSK2830371 treatment: GSK2830371 reduced the protein levels of Wip1 in a time-dependent manner and triggered a surge in phosphorylation of Serine 15 of p53
